Experimental data: publication PMC3107159, “Resistance to organic hydroperoxides requires ohr and ohrR genes in Sinorhizobium meliloti” (BMC Microbiology, 2011)
Where a chain is given by its changes, count along the chain named.

B1: M1 60 bp (dsDNA)
DNA 1: GGGGGGGAAGCTAGTCACCGCAAATTAATTTTGCGATACTAGAGAGATGCATATGGGGGG
DNA 2: CCCCCCATATGCATCTCTCTAGTATCGCAAAATTAATTTGCGGTGACTAGCTTCCCCCCC
B2: Mut1 60 bp (GC to AA in motif 1) (dsDNA)
DNA 1: B1 DNA 1 with G20A, C21A
DNA 2: B1 DNA 2 with G40T, C41T
B3: Mut2 60 bp (AAA to CCC in motif 1) (dsDNA)
DNA 1: B1 DNA 1 with A22C, A23C, A24C
DNA 2: B1 DNA 2 with T37G, T38G, T39G
B4: M2 60 bp (dsDNA)
DNA 1: B1 DNA 1 with A27G, A28C, T32G, G33C
DNA 2: B1 DNA 2 with C28G, A29C, T33G, T34C

Experiments:
[1] = target: T1, OhrR (Sinorhizobium meliloti Rm1021 (S. meliloti chromosomal DNA; Rm1021?)) (UniProt Q92MX6); assay: EMSA; conditions: 20 mM Tris-HCl pH 8.0, 50 mM KCl, 1 mM EDTA, 50 uM BSA, room temperature 10 min, 20 ul, 20 pmol DNA, 0-100 pmol OhrR, 6% PAGE in Tris-borate, SYBR gold
T1 sequence: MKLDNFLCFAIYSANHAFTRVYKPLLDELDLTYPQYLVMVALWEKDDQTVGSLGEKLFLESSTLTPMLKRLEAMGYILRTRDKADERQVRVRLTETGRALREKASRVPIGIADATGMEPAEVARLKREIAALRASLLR

OhrR [2] = target: T2, OhrR (Sinorhizobium meliloti, UniProt Q92RD0); assay: non-reducing SDS-PAGE of oxidised protein; type: binding; conditions: covalent oxidation, reversible intersubunit disulfide dimer; 15 min incubation; 0.55 nM CuOOH as printed; reversed by DTT
T2 construct: gene SMc00098; full-length ORF in pET22b+, C-terminal 6His tag kept, E. coli BL21(DE3), heparin column; homodimer
T2 sequence (Q92RD0 1-158): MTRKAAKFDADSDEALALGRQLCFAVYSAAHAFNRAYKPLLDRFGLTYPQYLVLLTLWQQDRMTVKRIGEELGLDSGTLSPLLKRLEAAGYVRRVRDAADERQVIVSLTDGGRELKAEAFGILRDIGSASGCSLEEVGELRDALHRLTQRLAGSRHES

OhrR [3] = target: T3, OhrR (Sinorhizobium meliloti Rm1021 (S. …, UniProt Q92MX6 1-138)); assay: EMSA; 1 mM DTT; 20 mM Tris-HCl pH 8.0, 50 mM KCl, 1 mM EDTA, 50 uM BSA, room temperature 10 min, 20 ul; 20 pmol DNA, 0-100 pmol OhrR; 6% PAGE in Tris-borate, SYBR gold; 1 mM DTT in Fig 3C; conditions: protein: recombinant; tags: C-terminal 6xHis (pET22b+); chain copies: 2; label: none (SYBR gold stain); blunt
T3 sequence: T1 sequence

Molecule | binding result (OhrR [3]) | also measured
CATGACAGTCTCCTTCCTTGTGGTTGCCGGATTTATATATCGCAAGATTAAATAGCGCGCAAATTAATTTTGCAAATTGCTTTGCCGGCGTGAATTTGCGACAATGACATCAT (double strand) [ohr-ohrR intergenic region 113 bp] | – | binding [1]: binds
CC(C)(OO)c1ccccc1 [CuOOH] | – | non-reducing SDS-PAGE of oxidised protein (OhrR [2]): Incubation of the protein with CuOOH or H2O2 led to the formation of a band
B1 | binds | –
B2 | no binding | –
B3 | no binding | –
B4 | binds | –
